Data from the supplement of paper PMC9112550, “Optimization of the antimicrobial peptide Bac7 by deep mutational scanning” (BMC Biology, 2022).

system: Escherichia coli TOP10; test: shrunken log2 fold change of peptide-encoding DNA abundance (4.5 h post-induction vs induction); higher = less antimicrobial activity (less host growth inhibition); conditions: time post-induction: 4.5 h; library: site-saturation at positions 5, 18, 19, 20
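Also: peptides expressed intracellularly from a pBAD plasmid library in pooled LB shake-flask culture, induced with 0.3% L-arabinose, DNA abundance read by NGS, three biological replicates, DESeq2 with apeglm shrinkage.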

| Sequence | shrunken log2 fold change |
| --- | --- |
| RRIRSRPPRLPRPRPRPCTRPRP | -0.134 |
| RRIRPRPPRLPRPRPRPKMYPRP | -0.938 |
| RRIRKRPPRLPRPRPRPFVPPRP | -0.297 |
| RRIRTRPPRLPRPRPRPSGNPRP | -0.168 |
| RRIRLRPPRLPRPRPRPFNYPRP | -0.817 |
| RRIRVRPPRLPRPRPRPRAHPRP | 0.00164 |
| RRIRGRPPRLPRPRPRPCVCPRP | 0.617 |
| RRIRVRPPRLPRPRPRPWMIPRP | -0.0467 |
| RRIRARPPRLPRPRPRPHTAPRP | 0.172 |
| RRIRSRPPRLPRPRPRPKYYPRP | -0.918 |
| RRIRYRPPRLPRPRPRPIVEPRP | 0.00721 |
| RRIRGRPPRLPRPRPRPYHTPRP | -0.779 |
| RRIRKRPPRLPRPRPRPRQPPRP | 0.467 |
| RRIRARPPRLPRPRPRPIQRPRP | 0.112 |
| RRIRQRPPRLPRPRPRPTVWPRP | 0.339 |
| RRIRTRPPRLPRPRPRPMDSPRP | -0.0716 |
| RRIRERPPRLPRPRPRPFMVPRP | -0.599 |
| RRIRARPPRLPRPRPRPGFPPRP | 0.213 |
| RRIRNRPPRLPRPRPRPPTKPRP | 0.46 |
| RRIRPRPPRLPRPRPRPNQDPRP | -0.167 |
| RRIRRRPPRLPRPRPRPCEFPRP | -0.109 |
| RRIRQRPPRLPRPRPRPLHYPRP | -0.269 |
| RRIRDRPPRLPRPRPRPTKMPRP | 0.269 |
| RRIRDRPPRLPRPRPRPKMFPRP | 0.00408 |
| RRIRERPPRLPRPRPRPKGVPRP | 0.723 |

| Sequence | shrunken log2 fold change |
| --- | --- |
| RRIRHRPPRLPRPRPRPMKSPRP | -0.00231 |
| RRIRLRPPRLPRPRPRPMTKPRP | 0.0751 |
| RRIRFRPPRLPRPRPRPYWPPRP | -0.336 |
| RRIRHRPPRLPRPRPRPHAFPRP | -0.0301 |
| RRIRGRPPRLPRPRPRPAPQPRP | 1.15 |
| RRIRHRPPRLPRPRPRPCCIPRP | -0.0109 |
| RRIRLRPPRLPRPRPRPLYEPRP | -0.488 |
| RRIRARPPRLPRPRPRPDIMPRP | 0.0619 |
| RRIRLRPPRLPRPRPRPRKMPRP | 0.281 |
| RRIRSRPPRLPRPRPRPADRPRP | 0.308 |
| RRIRRRPPRLPRPRPRPVWWPRP | 0.703 |
| RRIRTRPPRLPRPRPRPEYVPRP | 0.0172 |
| RRIRWRPPRLPRPRPRPCLDPRP | -0.0586 |
| RRIRARPPRLPRPRPRPNHDPRP | -0.141 |
| RRIRRRPPRLPRPRPRPFDHPRP | -0.242 |
| RRIRIRPPRLPRPRPRPMSYPRP | 0.0721 |
| RRIRQRPPRLPRPRPRPRQAPRP | 0.0647 |
| RRIRCRPPRLPRPRPRPRLYPRP | -0.307 |
| RRIRHRPPRLPRPRPRPPYQPRP | -0.028 |
| RRIRNRPPRLPRPRPRPQFTPRP | -0.259 |
| RRIRQRPPRLPRPRPRPVINPRP | -0.102 |
| RRIRTRPPRLPRPRPRPTHMPRP | -0.0271 |
| RRIRSRPPRLPRPRPRPHMSPRP | -0.223 |
| RRIRRRPPRLPRPRPRPGIAPRP | 0.185 |
| RRIRQRPPRLPRPRPRPHVKPRP | -0.274 |

| Sequence | shrunken log2 fold change |
| --- | --- |
| RRIRCRPPRLPRPRPRPWASPRP | 0.0212 |
| RRIRERPPRLPRPRPRPALEPRP | 0.0291 |
| RRIRCRPPRLPRPRPRPPHAPRP | 1.04 |
| RRIRARPPRLPRPRPRPCSPPRP | -0.0746 |
| RRIRWRPPRLPRPRPRPVWMPRP | 0.333 |
| RRIRCRPPRLPRPRPRPNPCPRP | -0.209 |
| RRIRSRPPRLPRPRPRPFAVPRP | -0.113 |
| RRIRQRPPRLPRPRPRPNQRPRP | 0.0738 |
| RRIRERPPRLPRPRPRPCAIPRP | -0.15 |
| RRIRGRPPRLPRPRPRPLHFPRP | 0.339 |
| RRIRARPPRLPRPRPRPCRTPRP | 0.0201 |
| RRIRCRPPRLPRPRPRPQVEPRP | 0.0599 |
| RRIRHRPPRLPRPRPRPPKCPRP | 0.145 |
| RRIRPRPPRLPRPRPRPTVTPRP | -0.0401 |
| RRIRVRPPRLPRPRPRPHHRPRP | 3.34 |
| RRIRRRPPRLPRPRPRPRDQPRP | 0.341 |
| RRIRHRPPRLPRPRPRPFPHPRP | 0.188 |
| RRIRGRPPRLPRPRPRPDLFPRP | 0.723 |
| RRIRMRPPRLPRPRPRPYAAPRP | 0.364 |
| RRIRFRPPRLPRPRPRPAASPRP | 0.0986 |
| RRIRVRPPRLPRPRPRPFAVPRP | -0.00738 |
| RRIRDRPPRLPRPRPRPFICPRP | -0.0606 |
| RRIRSRPPRLPRPRPRPIITPRP | -0.507 |
| RRIRARPPRLPRPRPRPQVPPRP | 0.117 |
| RRIRERPPRLPRPRPRPGHSPRP | -0.134 |

| Sequence | shrunken log2 fold change |
| --- | --- |
| RRIRNRPPRLPRPRPRPLGVPRP | 0.129 |
| RRIRNRPPRLPRPRPRPAYGPRP | 0.118 |
| RRIRWRPPRLPRPRPRPFWYPRP | -0.214 |
| RRIRFRPPRLPRPRPRPVWMPRP | -0.119 |
| RRIRKRPPRLPRPRPRPPSTPRP | 0.661 |
| RRIRRRPPRLPRPRPRPCRTPRP | 0.173 |
| RRIRTRPPRLPRPRPRPFQYPRP | -0.0476 |
| RRIRFRPPRLPRPRPRPACIPRP | -0.397 |
| RRIRLRPPRLPRPRPRPTIYPRP | -0.334 |
| RRIRRRPPRLPRPRPRPIWLPRP | 0.0778 |
| RRIRQRPPRLPRPRPRPNWCPRP | -0.0237 |
| RRIRSRPPRLPRPRPRPCRVPRP | 0.11 |
| RRIRNRPPRLPRPRPRPVELPRP | -0.0081 |
| RRIRWRPPRLPRPRPRPAAWPRP | 0.121 |
| RRIRFRPPRLPRPRPRPQVGPRP | -0.0394 |
| RRIRDRPPRLPRPRPRPCCGPRP | 1.13 |
| RRIRIRPPRLPRPRPRPYKPPRP | -0.0367 |
| RRIRIRPPRLPRPRPRPGYNPRP | -1.28 |
| RRIRSRPPRLPRPRPRPPDRPRP | 0.643 |
| RRIRERPPRLPRPRPRPSCEPRP | -0.668 |
| RRIRVRPPRLPRPRPRPPSSPRP | 0.275 |
| RRIRARPPRLPRPRPRPEHCPRP | 0.0263 |
| RRIRTRPPRLPRPRPRPLMEPRP | 0.0859 |
| RRIRDRPPRLPRPRPRPICWPRP | 0.318 |
| RRIRFRPPRLPRPRPRPIDQPRP | -0.296 |

| Sequence | shrunken log2 fold change |
| --- | --- |
| RRIRTRPPRLPRPRPRPFWCPRP | -0.111 |
| RRIRFRPPRLPRPRPRPYVFPRP | -0.408 |
| RRIRARPPRLPRPRPRPNLKPRP | 0.164 |
| RRIRIRPPRLPRPRPRPCHHPRP | 0.0314 |
| RRIRIRPPRLPRPRPRPGVEPRP | -0.0594 |
| RRIRNRPPRLPRPRPRPNKAPRP | -0.000622 |
| RRIRSRPPRLPRPRPRPQNCPRP | 0.0871 |
| RRIRFRPPRLPRPRPRPDIMPRP | -0.06 |
| RRIRERPPRLPRPRPRPPVRPRP | 0.538 |
| RRIRHRPPRLPRPRPRPLVYPRP | -0.0877 |
| RRIRQRPPRLPRPRPRPKAQPRP | 0.0112 |
| RRIRERPPRLPRPRPRPTVMPRP | -0.193 |
| RRIRQRPPRLPRPRPRPEVHPRP | 0.038 |
| RRIRKRPPRLPRPRPRPKVWPRP | 0.354 |
| RRIRARPPRLPRPRPRPVLNPRP | -0.0316 |
| RRIRPRPPRLPRPRPRPPWYPRP | -0.195 |
| RRIRVRPPRLPRPRPRPDPIPRP | -0.00485 |
| RRIRHRPPRLPRPRPRPPYKPRP | -0.31 |
| RRIRHRPPRLPRPRPRPWDPPRP | -0.243 |
| RRIRLRPPRLPRPRPRPEFRPRP | 0.126 |
| RRIRLRPPRLPRPRPRPLNQPRP | -0.917 |
| RRIRARPPRLPRPRPRPDRNPRP | -0.066 |
| RRIRKRPPRLPRPRPRPQVKPRP | 0.0274 |
| RRIRGRPPRLPRPRPRPTVSPRP | 0.731 |
| RRIRVRPPRLPRPRPRPIGLPRP | -0.0479 |

| Sequence | shrunken log2 fold change |
| --- | --- |
| RRIRHRPPRLPRPRPRPNKDPRP | -0.507 |
| RRIRARPPRLPRPRPRPTHWPRP | 0.863 |
| RRIRSRPPRLPRPRPRPSPMPRP | -0.132 |
| RRIRERPPRLPRPRPRPRFEPRP | 0.168 |
| RRIRDRPPRLPRPRPRPPQQPRP | -0.089 |
| RRIRLRPPRLPRPRPRPQFGPRP | -0.291 |
| RRIRNRPPRLPRPRPRPKRQPRP | -0.0692 |
| RRIRFRPPRLPRPRPRPRNKPRP | -0.174 |
| RRIRPRPPRLPRPRPRPWFNPRP | -0.541 |
| RRIRKRPPRLPRPRPRPYVSPRP | -0.438 |
| RRIRSRPPRLPRPRPRPIFDPRP | -0.0516 |
| RRIRGRPPRLPRPRPRPWSKPRP | -0.423 |
| RRIRYRPPRLPRPRPRPQNVPRP | -0.389 |
| RRIRHRPPRLPRPRPRPNRYPRP | -0.398 |
| RRIRARPPRLPRPRPRPITAPRP | 0.232 |
| RRIRTRPPRLPRPRPRPRMGPRP | 0.108 |
| RRIRPRPPRLPRPRPRPYFEPRP | -0.633 |
| RRIRARPPRLPRPRPRPMTPPRP | 0.913 |
| RRIRARPPRLPRPRPRPDQGPRP | 0.261 |
| RRIRMRPPRLPRPRPRPAFMPRP | 0.211 |
| RRIRVRPPRLPRPRPRPIAVPRP | 0.0926 |
| RRIRDRPPRLPRPRPRPMEPPRP | 0.127 |
| RRIRPRPPRLPRPRPRPSVTPRP | -0.385 |
| RRIRKRPPRLPRPRPRPYYLPRP | -0.278 |
| RRIRVRPPRLPRPRPRPSTHPRP | -0.573 |
